The text below walks through data of publication PMC5909843 (Immunity, 2018).

This test addresses EBV gH/gL heterodimer, recombinant ectodomain (Epstein-Barr virus, UniProt P03231;P03212). The test can be described thus: BLI. For orientation: Biolayer interferometry detects binding as a change in optical thickness at a sensor tip.

B1: AMMO1 with the first residue of the heavy chain substituted by an asparagine (antibody, V domains shown)
VH: NVQLVQSGADVKKPGASVKVSCKASGYTFIHFGISWVRQAPGQGLEWMGWIDTNNGNTNYAQSLQGRVTMTTDTSTGTAYMELRSLSTDDTAVYFCARALEMGHRSGFPFDYWGQGVLVTVSP
VL: SYELTQPPSVSVAPGQRATITCGGHNIGAKNVHWYQQKPGQAPVLVIQYDSDRPSGIPERFSGSNSGSTATLTISRVEAGDEADYYCQVWDSGRGHPLYVFGGGTKVTVL
Consider B1, for which the binding result was “binds”.

B2: E1D1, murine anti-gH/gL monoclonal antibody (antibody, V domains shown)
VH: EVQLEQSGPELVKPGASVKMSCKASGYTFTDYVISWVKQRTGQGLEWIGEIYPESGNTYYNEKFKGEATLTADKSSNTAYMQLSRLTSEDSAVYFCAEGYAMDFWGQGTSVTVSS
VL: DIVITQTPLSLPVSLGDQASISCRSSQSLLHSNGNTYLHWYLQRPGQSPKLLIYKVSNRFSGVPDRFSGSGSGTDFTLMINRVEAEDLGVYFCSQSIHVPRTFGGGTKLEIK
On to B2, for which the binding result was “binds”.
